These results are taken from PMC3764174.

In this assay the target is PCNA3_(N106R)-P450cam fusion protein (Sulfolobus solfataricus | Pseudomonas putida).

In the case of PCNA2-G4S(P5)4G4S-PdX, the substrate-dependent O2 consumption rate (monooxygenase activity) of PUPPET-P4 at 18 nM complex, 25°C came to 6.5 µM/min.
